PMC10635833, “A MEC-2/stomatin condensate liquid-to-solid phase transition controls neuronal mechanotransduction during touch sensing” (Nature Cell Biology, 2023)

Biological target: the molecule itself
Assay: NMR signal intensities and chemical shifts (1H-15N correlation spectra) of the mutant against the wild type; per-residue chemical shift difference and intensity ratio between MEC-2 C-terminal domain WT and R385H, no partner added

B1: MEC-2 C-terminal domain R385H mutant (domain or fragment, C. elegans, UniProt Q27433 371-481, looked up)
chain: PPKVEEPPSLPKKIHSCCLYKYPDWVQGMVGSEGGGGHGHSHGGGGGGLGSSQGAFHPSQAGSGPSTTTTSGRPLLRSMREAQFHSAAPPISAPNQSQTSVSQLDPALLIR
notes: MEC-2 (stomatin), C. elegans, C-terminal domain, residues 371-481 as for the wild-type construct, with R385H (allele u26); also called MEC-2 (R385H); u26 allele
**Q.** Does B1 bind?
**A.** binds
